The results in this text go back to patent publication US7745417B2, “Nucleosides or nucleotides having novel unnatural bases and use thereof” (RIKEN, priority 2002, dated 2010).

Like-named read-outs stand apart in the source and are kept apart here.

In data set [1] the test system is Ras-induced Raf-1 activation. In words: Ras-induced Raf-1 activation in a cell-free system. Type of data set: biochemical. The following applies: membrane fraction of Sf9 cells expressing Ras and Raf-1, cytoplasmic fraction of HEK293 cells.
A further data set deals with T1, Raf-1 GST-RBD (Homo sapiens, UniProt P04049).
T1 construct: human Raf-1 RBD (amino acid residues 51-131); GST (N); made in house; host or cells: E. coli
In words: Gel shift assay of binding to GST-RBD. The following applies: 5% non-denaturing polyacrylamide gel. On the procedure: The product (XL) obtained by crosslinking reaction an equal concentration (0.1 μM) mixture of 9A(5Iy87) and Raf-1 RBD was purified from a gel and analyzed for binding between XL and GSTRBD by gel shift assay. As a control of RNA 9A dimer, RNA 9A molecules were also linked in tandem to newly prepare RNA 9A×2 (200 nucleotides in total length), followed by gel shift assay. RNA 9A×2 is an RNA molecule of 200 nucleotides in total length that has two essential regions of RNA 9A (residues 1-80) in its molecule. It was prepared by transcription reaction using T7 RNA polymerase (Epicentre) and subcloned into vector pCR®II-TOPO (Invitrogen).
Each RNA whose 5′-terminus was ^32P-labeled (0.8 pmol) was warmed in 20 μl Buffer A at 75° C. for 3 minutes and then allowed to stand at room temperature for 10 minutes or longer to form the secondary structure of RNA. […] Each aliquot was supplemented with 5 μl Raf-1 GST-RBD solution (containing, in addition to RBD, 160 μg/ml BSA, 1 mM DTT and 10% glycerol in Buffer A), incubated at 37° C. for 30 minutes, and then analyzed by electrophoresis on a 5% non-denaturing polyacrylamide gel (acrylamide:bisacrylamide=39:1). […]
Background: A gel shift assay detects complexes by their altered migration in electrophoresis.

For a further data set, the target named is T7 RNA polymerase (Escherichia phage T7, UniProt P00573). The following applies: for misincorporation: 5IyTP +; for 5Iyp (number of nucleotides in transcription product): transcribed with 0.25 mM 5IyTP (+), theoretical number in parentheses. The protocol: The reaction composition of T7 transcription may be the same as described in Ohtsuki et al., 2001. Details are as follows: 40 mM Tris-HCl (pH 8.0), 5 mM DTT, 24 mM MgCl2, 2 mM spermidine, 0.01% TritonX-100, 10 mM GMP, 1 mM NTPs, 0-0.25 mM 5IyTP, 0.2 μl/μl template DNA, and 2.5 U/μl T7 RNA polymerase (TaKaRa). After enzymatic reaction at 37° C. for 6 hours, each reaction product was purified by electrophoresis on an 8% polyacrylamide-7M urea gel.
When T7 transcription reaction is performed in the presence of [α-^32P]ATP or [α-^32P]GTP, a nucleoside 3′-phosphate (Np) 5′-terminal to A or G is labeled with ^32P. Each gel-purified RNA was completely digested into Np by RNase T2 (Sigma). If 5Iy is introduced at residue 84 or 92, the nucleoside 3′-phosphate of 5Iy (5IyTp) is labeled with ^32P via [α-^32P]GTP, while if 5Iy is introduced at residue 87, 5IyTp is labeled via [α-^32P]ATP (FIG. 5, FIG. 6-b). For base composition analysis of 5Iy-containing RNAs, each of the completely digested products was separated by 2D-TLC and determined for each nucleotide content.
More specifically, to completely digest RNA, 0.75 μl RNase T2 solution (5 units/μl; 100 mM NaOAc pH 4.5, 10% glycerol) was added to 4.25 μl aqueous solution containing the labeled RNA and a 0.25 OD E. coli-derived tRNA mixture (Sigma), followed by overnight enzymatic reaction at 37° C. A part of the reaction solution was spotted onto a 10 cm×10 cm TLC plate (Funacell SF; Funakoshi Co., Ltd., Japan) and developed in two dimensions. Developing solutions for the first and second dimensions are isobutyric acid/ammonia/water (66:1:33 by volume) and 2-propanol/hydrochloric acid/water (70:15:15 by volume), respectively. The developed spots were detected and quantified using a bioimaging analyzer (BAS2500, Fuji Photo Film Co., Ltd., Japan).
Each value was calculated from the following equation. The theoretical numbers of nucleotides are in parentheses.

Data set [2] is described as follows: Filter binding % (filter binding method, Table 2). The following applies: triplicate average, standard deviation in parentheses. On the procedure:
(§1) The binding efficiency to Raf-1 RBD was measured for each RNA by a filter binding method (Raf-1 RBD/RNA=300:5 nM). Standard deviations are in parentheses. ^a RNA 9A transcribed from s-free template DNA in the presence of 0.4 mM 5IUTP. ^b RNA 9A transcribed from s-free template DNA in the presence of 0.25 mM 5IyTP.

Data set [3] concerns the target T2, Raf-1 RBD/Ras interaction (Homo sapiens, UniProt P04049).
T2 construct: GST (N); made in house; host or cells: E. coli
In words: Inhibition of Raf-1 RBD/Ras interaction. Type of data set: biochemical. The following applies: compared with aptamer from N60 pool. The text has this: In this reference example, with the aim of designing a novel RNA molecule selectively regulating Ras/Raf-1 interaction in cellular signal transduction, RNA aptamers specifically binding to Raf-1 RBD were isolated by in vitro selection techniques. An RNA aptamer obtained from a pool containing random sequences of 60 nucleotides (N60) inhibited Raf-1 RBD/Ras interaction. […] In response to this, the selection technique was partially modified and used for selection on a pool containing newly designed RNA random sequences of 45 nucleotides (N45). The RT-PCR products were each subcloned into TA cloning vector pCR®II-TOPO using a TOPO TA Cloning Kit Dual (Invitrogen), and nucleotide sequences were determined for individual clones using a dRhodamine Terminator Cycle Sequencing Ready Reaction Kit (Applied Biosystems).

In another data set the target is T3, Raf-1 RBD (Homo sapiens, UniProt P04049).
T3 construct: human Raf-1 RBD (amino acid residues 51-131); GST (N); made in house; host or cells: E. coli
As to the kind of experiment: Binding efficiency to Raf-1 RBD by filter binding method. The following applies: Raf-1 RBD/RNA=300:5 nM; triplicate average, standard deviation in parentheses. The protocol: In this example, to examine changes in binding activity to Raf-1 RBD, each RNA site-selectively introduced with 5Iy was measured for binding efficiency by a filter binding method (Table 2). […] This means that the inventive method for site-selective introduction of 5Iy is advantageous.
as §1
Each RNA whose 5′-terminus was ^32P -labeled was warmed in Buffer A at 75° C. for 3 minutes and then allowed to stand at room temperature for 10 minutes or longer to form the secondary structure of RNA. On the other hand, to prepare Raf-1 RBD, human Raf-1 RBD (amino acid residues 51-131) was expressed as a GST (glutathione transferase)-fusion protein in E. coli cells and purified from the supernatant of crushed cells by column chromatography. Rat RGL RBD (amino acid residues 632-734) [Koyama et al., 1996] and human B-Raf RBD (amino acid residues 149-226) were also expressed as GST-fusion proteins in E. coli cells and purified in the same manner.

Data set [4] concerns the target B-Raf RBD/Ras interaction (Homo sapiens, UniProt P15056).

Sequence of T7 RNA polymerase (P00573 whole entry): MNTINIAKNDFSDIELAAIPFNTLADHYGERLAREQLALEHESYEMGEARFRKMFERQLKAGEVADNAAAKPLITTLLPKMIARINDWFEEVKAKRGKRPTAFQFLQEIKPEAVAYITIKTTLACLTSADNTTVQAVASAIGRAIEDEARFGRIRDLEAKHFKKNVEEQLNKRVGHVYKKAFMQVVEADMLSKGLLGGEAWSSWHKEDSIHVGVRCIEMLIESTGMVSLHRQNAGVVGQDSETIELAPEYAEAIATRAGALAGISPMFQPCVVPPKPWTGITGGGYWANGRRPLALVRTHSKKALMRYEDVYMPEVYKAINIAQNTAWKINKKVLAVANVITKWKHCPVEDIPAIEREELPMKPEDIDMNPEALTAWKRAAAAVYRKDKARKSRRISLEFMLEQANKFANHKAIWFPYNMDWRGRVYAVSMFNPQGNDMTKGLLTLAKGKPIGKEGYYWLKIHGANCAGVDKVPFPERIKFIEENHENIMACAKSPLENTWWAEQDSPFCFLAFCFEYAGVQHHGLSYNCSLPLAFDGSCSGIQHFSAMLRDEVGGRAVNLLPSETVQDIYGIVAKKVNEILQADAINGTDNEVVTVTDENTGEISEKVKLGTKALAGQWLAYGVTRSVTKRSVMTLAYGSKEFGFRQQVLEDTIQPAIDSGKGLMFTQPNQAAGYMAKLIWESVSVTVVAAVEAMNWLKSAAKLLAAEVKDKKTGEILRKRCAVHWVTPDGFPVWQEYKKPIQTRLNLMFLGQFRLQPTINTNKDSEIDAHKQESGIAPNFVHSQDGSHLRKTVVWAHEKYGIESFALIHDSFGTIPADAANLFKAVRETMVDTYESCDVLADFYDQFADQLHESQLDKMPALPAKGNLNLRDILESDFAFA
Sequence of B-Raf RBD/Ras interaction (P15056 149-226): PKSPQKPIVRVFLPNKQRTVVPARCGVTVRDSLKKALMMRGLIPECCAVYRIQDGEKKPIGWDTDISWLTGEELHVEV

B1: RNA 9A: anti-(Raf-1) RNA aptamer binding to Raf-1 RBD, 100 bases, SEQ ID NO: 1 (nucleic acid)
chain: GGGAGUGGAGGAAUUCAUCGAGGCAUAUGUCGACUCCGUCUUCCUUCAAACCAGUUAUAAAUUGGUUUUAGCAUAUGCCUUAGCGACAGCAAGCUUCUGC
modifications: chemistry not given here
For B1, the “inhibition of Ras-induced Raf-1 activation” value in data set [1] is recorded as “strongly inhibited”. Moreover, in the data set with Raf-1 GST-RBD, the “complex formation with GST-RBD (gel shift pattern)” value is 1:1 complex. In addition, in the data set with T7 RNA polymerase ([α-32P]ATP label), the misincorporation stood at 0.45% and the “5Iyp (number of nucleotides in transcription product)” value is reported as 0.10(0). In addition, in the data set with T7 RNA polymerase ([α-32P]GTP label), the misincorporation came out at 0.41% and the “5Iyp (number of nucleotides in transcription product)” value was 0.09(0). The Filter binding % in data set [2] is listed as 0.2 (0.1) %. Moreover, the “inhibitory capacity against Raf-1 RBD/Ras interaction” value in data set [3] is listed as “higher inhibitory capacity”. Also, the “Raf-1 RBD binding %” value with Raf-1 RBD is on record as 25 (5) %. The “inhibition of B-Raf RBD/Ras interaction” value in data set [4] is given as “did not inhibit”.
